Source: paper PMC3605776

What was measured:
[1] = molecular target: T1, KSRP KH3 (Homo sapiens, UniProt Q92945 322-386); assay: NMR titration
T1 sequence: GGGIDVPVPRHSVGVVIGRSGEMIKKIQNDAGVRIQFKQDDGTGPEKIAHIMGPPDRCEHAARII

[2] = molecular target: T1, KSRP KH3; assay: NMR structure, NMR titration, ITC
[3] = molecular target: T2, KSRP KH1-KH4 (referred to as KSRP) (Homo sapiens, UniProt Q92945 68-525); assay: NMR 13C-1H
T2 sequence: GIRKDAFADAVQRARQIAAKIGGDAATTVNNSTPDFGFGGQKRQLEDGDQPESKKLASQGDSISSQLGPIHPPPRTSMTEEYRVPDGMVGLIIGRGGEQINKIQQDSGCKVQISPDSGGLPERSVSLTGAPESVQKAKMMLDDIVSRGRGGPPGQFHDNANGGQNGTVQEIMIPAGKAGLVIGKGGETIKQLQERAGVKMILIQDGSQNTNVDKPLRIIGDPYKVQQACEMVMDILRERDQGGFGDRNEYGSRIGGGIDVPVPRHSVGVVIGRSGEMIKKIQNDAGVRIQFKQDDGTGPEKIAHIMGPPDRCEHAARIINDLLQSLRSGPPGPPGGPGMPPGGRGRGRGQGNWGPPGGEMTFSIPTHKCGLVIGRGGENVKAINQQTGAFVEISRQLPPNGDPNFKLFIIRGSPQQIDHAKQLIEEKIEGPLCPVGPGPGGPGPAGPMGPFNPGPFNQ

| Binder | binding result [1] | binding result [2] | binding result [3] |
| --- | --- | --- | --- |
| AGUGU (ssRNA) [AGGGU G3U] | binds | – | – |
| AGGGU (ssRNA) | – | binds | binds |
| AGAGU (ssRNA) [AGGGU G3A] | binds | – | – |
